Data published in paper PMC3798688, “A Structural Basis for BRD2/4-Mediated Host Chromatin Interaction and Oligomer Assembly of Kaposi Sarcoma-Associated Herpesvirus and Murine Gammaherpesvirus LANA Proteins” (PLoS Pathogens, 2013).

B3: kLANA(996–1153) (domain or fragment)
chain: GSGVRMRRVPVTHPKKPHPRYQQPPVPYRQIDDCPAKARPQHIFYRRFLGKDGRRDPKCQWKFAVIFWGNDPYGLKKLSQAFQFGGVKAGPVSCLPHPGPDQSPITYCVYVYCQNKDTSKKVQMARLAWEASHPLAGNLQSSIVKFKKPLPLTQPGENQG
notes: source: E. coli BL21(DE3), purified (Ni-NTA with guanidine gradient, thrombin cleavage)

Assays:
[1] = biological target: the molecule itself; assay: asymmetric field flow fractionation with multi-angle static light scattering; 40 µg protein per run; 10 mM bis-tris-Cl pH 6.5, 50 mM NaCl, 0.01% NaN3
crystal structure = biological target: the molecule itself; assay: crystal structure
kLANA(996–1153) = biological target: B3; assay: NMR titration; details: both partners purified

B1: kLANA(1013–1149) (domain or fragment)
chain: GSRYQQPPVPYRQIDDCPAKARPQHIFYRRFLGKDGRRDPKCQWKFAVIFWGNDPYGLKKLSQAFQFGGVKAGPVSCLPHPGPDQSPITYCVYVYCQNKDTSKKVQMARLAWEASHPLAGNLQSSIVKFKKPLPLTQPG
notes: as for B3
- stoichiometry N [1]: 2
- stoichiometry N (crystal structure): 10

B2: 15N-BRD2 ET(632–713), with N-terminal GSGS (domain or fragment)
chain: GSGSDSEEEEESRPMSYDEKRQLSLDINKLPGEKLGRVVHIIQAREPSLRDSNPEEIEIDFETLKPSTLRELERYVLSCLRKKPRK
notes: also called 15N-BRD2(632–713); source: E. coli BL21(DE3), purified (Ni-NTA with guanidine gradient, thrombin cleavage)
- binding result (kLANA(996–1153)): binds

Binder: B3
- stoichiometry N (crystal structure): 8

B4: mLANA(124–260) (domain or fragment)
chain: GSKRYSRYQKPHNPSDPLPKKYQGMRRHLQVTAPRLFDPEGHPPTHFKSAVMFSSTHPYTLNKLHKCIQSKHVLSTPVSCLPLVPGTTQQCVTYYLLSFVEDKKQAKKLKRVVLAYCEKYHSSVEGTIVKAKPYFPLPE
notes: as for B3
- stoichiometry N (crystal structure): 2
